Target: T1, VqsMt (truncated VqsM) (Pseudomonas aeruginosa PAO1) (UniProt Q9I1P2)
T1 sequence: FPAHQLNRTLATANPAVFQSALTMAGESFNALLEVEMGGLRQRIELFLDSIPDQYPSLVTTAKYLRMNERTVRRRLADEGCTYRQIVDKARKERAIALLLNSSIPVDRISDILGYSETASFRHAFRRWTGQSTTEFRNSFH
Experiment: EMSA
Settings: 20 mM Tris-HCl pH 7.4, 50 mM KCl, 5 mM MgCl2, 10% glycerol, 3 ug/ml sheared salmon sperm DNA; room temperature 20 min; DNA 40-50 nM (footprint DNase I at 25 C)

Row | Sequence | binding
1 | AAAAAGCCTCCGTCATTCCTCATTGCAGTAAGCCCTGATCGATAAAATGCATCACAGCAGAATTGGCCCGGGGTATGACGCTGTCAAGCGCGCAGCCTTGCCGATACGGCAAAATCATGGCAACCCTATCTGTTATGCCAGCACCGTTCAGGACGCAGCCTTCAGCCATCGAGCATCCCCCTCCCTATGACAACGTTCGACCACCTGGGCCGCTTTACCGCAAGCGATACTGTGCGGTTGTGACAATTCCATGAAACGC (double strand) [rhlR promoter] | no binding
2 | AAAAGGCGGCATCCCTACCCTGATACTCCTGGGCCCTCTCAGTCGGAGGACATACCAGCACACACATGAGGGGGAAGACTAAAGGAGGATGAACGGCAGGCAACCTGCCAGATCTGGTAGGGCGCGCCGACCGGCGCGCCCTGCGCTTCAGATGAGACCCAGCGCCGCGGCGTAGGCGGCAGCCAGCGTCTTGTTCGGCGCGTCGAACTTCTTCTGGATGTTC (double strand) [rhlI promoter] | no binding
3 | TAAAGATGGACGCTGGTTTGCGCAGCCCATGCACTGTCCGCCGCTGTCGCACCGATCGTCGTCAGGATCGATAACGCCAGTGCACAAACTTTTTTCATTGGATTTCCTTTCCGAAACGAAACAAGTTGGATTTTGCACCTACCAGAACTGGTAGTTCTGACCTGTGGCTATCTTCGAAGGCATCGATATTATGCACATTGGAACTCTTCATGACATAACGCCGAGTGACT (double strand) [vqsR promoter] | no binding
